Earlier results, collected in article PMC8044391.

Target: ICAM-1 (Homo sapiens) (UniProt P05362)
Sequence (P05362 28-480): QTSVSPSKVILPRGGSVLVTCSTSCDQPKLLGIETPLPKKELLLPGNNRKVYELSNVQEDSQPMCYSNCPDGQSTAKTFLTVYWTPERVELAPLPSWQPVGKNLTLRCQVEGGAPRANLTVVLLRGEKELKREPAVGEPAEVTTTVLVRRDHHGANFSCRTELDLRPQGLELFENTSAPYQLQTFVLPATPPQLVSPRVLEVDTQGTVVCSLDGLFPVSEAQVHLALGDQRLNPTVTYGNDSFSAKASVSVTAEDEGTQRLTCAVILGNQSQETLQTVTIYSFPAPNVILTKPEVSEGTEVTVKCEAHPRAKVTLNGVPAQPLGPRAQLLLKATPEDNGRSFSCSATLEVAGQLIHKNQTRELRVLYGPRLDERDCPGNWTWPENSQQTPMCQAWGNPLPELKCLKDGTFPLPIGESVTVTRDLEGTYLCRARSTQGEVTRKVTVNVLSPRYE

integrin αLβ2, sequence (P20701 26-1090): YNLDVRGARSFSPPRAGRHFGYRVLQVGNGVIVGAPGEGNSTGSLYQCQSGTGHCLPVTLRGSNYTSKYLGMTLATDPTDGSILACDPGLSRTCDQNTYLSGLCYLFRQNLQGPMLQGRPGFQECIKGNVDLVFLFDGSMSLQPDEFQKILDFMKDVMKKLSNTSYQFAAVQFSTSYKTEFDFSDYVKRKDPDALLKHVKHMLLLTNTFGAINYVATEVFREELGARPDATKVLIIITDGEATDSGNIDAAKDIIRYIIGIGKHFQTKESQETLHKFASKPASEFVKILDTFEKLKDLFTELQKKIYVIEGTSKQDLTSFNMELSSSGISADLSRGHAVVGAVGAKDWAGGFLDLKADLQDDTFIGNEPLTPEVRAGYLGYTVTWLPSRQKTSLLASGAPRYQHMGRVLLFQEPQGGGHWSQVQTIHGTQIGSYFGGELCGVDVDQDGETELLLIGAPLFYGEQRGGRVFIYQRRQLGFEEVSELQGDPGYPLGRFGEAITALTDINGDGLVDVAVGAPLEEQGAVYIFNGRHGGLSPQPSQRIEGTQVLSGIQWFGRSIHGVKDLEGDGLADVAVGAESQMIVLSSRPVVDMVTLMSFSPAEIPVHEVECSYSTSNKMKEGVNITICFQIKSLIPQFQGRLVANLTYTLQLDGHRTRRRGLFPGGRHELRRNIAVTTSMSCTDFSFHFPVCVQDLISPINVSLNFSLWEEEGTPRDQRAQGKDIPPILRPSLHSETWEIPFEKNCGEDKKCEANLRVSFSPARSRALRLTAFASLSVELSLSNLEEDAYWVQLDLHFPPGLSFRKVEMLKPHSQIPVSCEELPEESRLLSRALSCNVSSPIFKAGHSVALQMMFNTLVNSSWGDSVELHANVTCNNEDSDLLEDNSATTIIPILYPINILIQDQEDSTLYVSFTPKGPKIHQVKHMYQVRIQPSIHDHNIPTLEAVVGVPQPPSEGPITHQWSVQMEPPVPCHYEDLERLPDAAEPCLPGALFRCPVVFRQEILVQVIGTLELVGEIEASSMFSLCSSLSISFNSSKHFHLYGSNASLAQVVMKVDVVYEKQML
integrin αLβ2, sequence (P05107 23-700, further chain): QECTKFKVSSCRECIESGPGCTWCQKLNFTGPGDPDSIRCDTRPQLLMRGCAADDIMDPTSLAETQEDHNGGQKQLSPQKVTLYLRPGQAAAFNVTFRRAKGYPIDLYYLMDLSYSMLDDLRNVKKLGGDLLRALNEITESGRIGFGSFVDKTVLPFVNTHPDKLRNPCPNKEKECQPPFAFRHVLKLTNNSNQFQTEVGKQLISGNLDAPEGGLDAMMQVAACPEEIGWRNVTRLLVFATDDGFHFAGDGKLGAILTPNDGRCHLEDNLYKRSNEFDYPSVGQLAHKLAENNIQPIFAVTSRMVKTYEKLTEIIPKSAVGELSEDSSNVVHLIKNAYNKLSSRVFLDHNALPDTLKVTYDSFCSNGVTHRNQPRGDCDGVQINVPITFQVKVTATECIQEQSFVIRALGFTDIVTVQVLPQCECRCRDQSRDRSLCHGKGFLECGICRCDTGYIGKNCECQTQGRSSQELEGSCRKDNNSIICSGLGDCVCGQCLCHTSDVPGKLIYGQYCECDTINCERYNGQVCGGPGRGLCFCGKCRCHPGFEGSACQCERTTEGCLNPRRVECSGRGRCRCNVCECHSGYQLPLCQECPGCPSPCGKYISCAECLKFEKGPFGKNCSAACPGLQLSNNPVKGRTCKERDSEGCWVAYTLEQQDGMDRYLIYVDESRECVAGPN

Kd: 26 µM
Substance: integrin αLβ2 (from UniProt P20701)
